# Measurements as given in PMC6854486.
# Test system: RcGTA gp1 (small terminase TerS), MBP fusion (Rhodobacter capsulatus SB1003)
# Assay: EMSA
# Conditions: 25 mM HEPES pH 8.0, 50 mM K-glutamate, 1 mM DTT, 0.05% Triton X-100, 4% glycerol, 1 ug poly(dI-dC), 100 ng DNA in 10 ul, room temperature 30 min; 0.8% agarose …
row,Substance,binding signal (% bound at 40 uM protein)
1,rcc01397 flanking amplicon,87
2,rcc01398 flanking amplicon (1.4 kbp),87
